Measurements reported in patent US20250064952A1 (ACCELERON PHARMA, published 2025).

Key:
ActRIIA-mFc = biological target: T1, ActRIIA-mFc (human, UniProt P27037 20-135); test: similar Biacore binding assay
T1 construct: extracellular domain; not shown: minimal linker, not specified for the mouse construct
Procedure: GDF11 or activin A were immobilized on a Biacore™ CMS chip using standard amine-coupling procedure. ActRIIA-hFc and ActRIIA-mFc proteins were loaded onto the system, and binding was measured. […] See FIG. 15A-B. Using a similar binding assay, ActRIIA-hFc was determined to have high to moderate affinity for other TGF-beta superfamily ligands including, for example, activin B, GDF8, BMP6, and BMP10. ActRIIA-mFc behaved similarly.

ActRIIB-Fc homodimer [1] = biological target: T2, ActRIIB-Fc homodimer (human, UniProt Q13705 19-137); test: SPR (Biacore), anti-Fc capture, ligand in flow
T2 construct: extracellular domain; also called unmodified ActRIIB-Fc homodimer; ActRIIB-Fc:ActRIIB-Fc homodimer
T2 sequence (looked up): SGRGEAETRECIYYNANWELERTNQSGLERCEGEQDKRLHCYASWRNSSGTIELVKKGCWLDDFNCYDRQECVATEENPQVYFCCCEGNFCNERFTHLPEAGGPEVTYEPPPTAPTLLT
Procedure: A Biacore™-based binding assay was used to compare ligand binding selectivity of the ActRIIB-Fc:ALK4-Fc heterodimeric complex described above with that of ActRIIB-Fc and ALK4-Fc homodimer complexes. The ActRIIB-Fc:ALK4-Fc heterodimer, ActRIIB-Fc homodimer, and ALK4-Fc homodimer were independently captured onto the system using an anti-Fc antibody. Ligands were injected and allowed to flow over the captured receptor protein. Results are summarized in the table below, in which ligand off-rates (kd) most indicative of effective ligand traps are denoted by bold font.

ActRIIB-Fc homodimer [2] = biological target: T2, ActRIIB-Fc homodimer; test: SPR (Biacore), anti-Fc capture, ligand in flow; remark: listed apart in the source
Procedure: A Biacore™-based binding assay was used to compare ligand binding selectivity of the ActRIIB-Fc:ALK7-Fc heterodimeric complex described above with that of ActRIIB-Fc and ALK7-Fc homodimeric complexes. The ActRIIB-Fc:ALK7-Fc heterodimer, ActRIIB-Fc homodimer, and ALK7-Fc homodimer were independently captured onto the system using an anti-Fc antibody. Ligands were injected and allowed to flow over the captured receptor protein. Results are summarized in the table below, in which ligand off-rates (kd) most indicative of effective ligand traps are denoted by bold font.

ActRIIB-Fc homodimer [3] = biological target: T2, ActRIIB-Fc homodimer; test: SPR (Biacore), 37 C, anti-Fc capture, ligand in flow
Procedure: A Biacore™-based binding assay was used to compare the ligand binding kinetics of an ActRIIB-Fc:ActRIIB(L79E)-Fc heterodimer with those of unmodified ActRIIB-Fc homodimer. Fusion proteins were captured onto the system using an anti-Fc antibody. Ligands were then injected and allowed to flow over the captured receptor protein at 37° C. Results are summarized in the table below, in which ligand off-rates (kd) most indicative of effective ligand traps are denoted in bold.

T1 sequence (P27037 20-135): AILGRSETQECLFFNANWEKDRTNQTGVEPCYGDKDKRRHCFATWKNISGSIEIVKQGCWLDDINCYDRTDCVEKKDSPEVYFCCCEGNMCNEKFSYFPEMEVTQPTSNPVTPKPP

- binding result (ActRIIA-mFc): binds
- Kd (ActRIIB-Fc homodimer [1]): 20 pM
- koff (ActRIIB-Fc homodimer [1]): 0.0001 s⁻¹
- kon (ActRIIB-Fc homodimer [1]): 5.1e+06 M⁻¹ s⁻¹
- Kd (ActRIIB-Fc homodimer [2]): 8 pM
- koff (ActRIIB-Fc homodimer [2]): 0.00016 s⁻¹
- kon (ActRIIB-Fc homodimer [2]): 1.5e+07 M⁻¹ s⁻¹
- Kd (ActRIIB-Fc homodimer [3]): 8 pM
- koff (ActRIIB-Fc homodimer [3]): 6.6e-05 s⁻¹
- kon (ActRIIB-Fc homodimer [3]): 8.1e+06 M⁻¹ s⁻¹
B1: activin B (ligand, UniProt P09529 293-407, looked up)
chain: GLECDGRTNLCCRQQFFIDFRLIGWNDWIIAPTGYYGNYCEGSCPAYLAGVPGSASSFHTAVVNQYRMRGLNPGTVNSCCIPTKLSTMSMLYFDDEYNIVKRDVPNMIVEECGCA
